In patent US20060019296A1, “Methods of indentifying modulators of the FGF receptor” (Mount Sinai School of Medicine, published 2006):
Square brackets hold non-standard residues; d marks the D form. Ends that are not written are not given here. pY = N[C@@H](Cc1ccc(OP(=O)(O)O)cc1)C(=O)O

T1: hFGFR1 peptide, 22-residue peptide derived from the juxtamembrane region of hFGFR1 (residues 409-430 of SEQ … (named hFGFR1 (human); SEQ ID NO:2 is …)
T1 peptide: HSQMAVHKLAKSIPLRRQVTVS

B1: SNT-1 PTB domain (amino acid residues 11-140 of SEQ ID NO:1) (other)
chain: DTVPDNHRNKFKVINVDDDGNELGSGIMELTDTELILYTRKRDSVKWHYLCLRRYGYDSNLFSFESGRRCQTGQGIFAFKCARAEELFNMLQEIMQNNSINVVEEPVVERNNHQTELEVPRTPRTPTTPGLVPR

Experiments:
[1] = target: B1; assay: method not stated
[2] = target: T1, hFGFR1 peptide, 22-residue peptide …; assay: isothermal titration calorimetry (ITC)

Binder | Kd [1] [µM] | fold higher affinity than for the FGFR derived peptide of SEQ ID NO:3 [1] [fold] | Kd [2] [µM]
LVIAGNPA[pY]RS [tyrosine-phosphorylated peptide LVIAGNPApYRS (SEQ ID NO:4)] | ~1 | ~10 | –
B1 | – | – | ~10
